Data reported in patent publication EP4039268A1 (IMBA-Institut für Molekulare Biotechnologie GmbH, dated 2022).

B1: Ly75_1 CRD-mouse IgG2a-Fc fusion protein (Fc fusion)
chain: QIGSCYQFNNQEILSWKEAYVSCQNQGADLLSIHSAAELAYITGKEDIARLVWLGLNQLYSARGWEWSDFRPLKFLNWDPGTPVAPVIGGSSCARMDTESGLWQSVSCESQQPYVCKGGGSGGGSGGGS
B2: Atrnl1 CRD-mouse IgG2a-Fc fusion protein (Fc fusion)
chain: VGDACLRINSSRESYDNAKLYCYNLSGNLASLTTSKEVEFVLDEIQKFTQQKVSPWVGLRKINISYWGWEDMSPFTNTSLQWLPGEPNDSGFCAYLERAAVAGLKANPCTSMADGLVCEGGGSGGGSGGGS
B3: Klrg1 CRD-mouse IgG2a-Fc fusion protein (Fc fusion)
chain: NGSHCYYFSMEKKDWNSSLKFCADKGSHLLTFPDNQGVKLFGEYLGQDFYWIGLRNIDGWRWEGGPALSLRILTNSLIQRCGAIHRNGLQASSCEVALQWICKGGGSGGGSGGGS
B4: Siglec10 CRD-mouse IgG2a-Fc fusion protein (Fc fusion)
chain: VQRIVKAQEGLCIFVPCSFSSPEGKWLNRSPLYGYWFKGIRKPSLSFPVATNNKDKVLEWEARGRFQLLGDISKKNCSLLIKDVQWGDSTNYFFRMERGFERFSFKEEFRLQVGGGSGGGSGGGS
B5: Clec2i CRD-mouse IgG2a-Fc fusion protein (Fc fusion)
chain: VGNKCFYFSGYPRNWTFAQAFCMAQEAQLARFDNEEELIFLKRFKGDFDCWIGLHRESSEHPWKWTNNTEYNNMNPILGVGRYAYLSSDRISSSRSYINRMWICSGGGSGGGSGGGS
B6: Ly75_2 CRD-mouse IgG2a-Fc fusion protein (Fc fusion)
chain: NNGFCYLLANESSSWDAAHLKCKAFGADLISMHSLADVEVVVTKLHNGDVKKEIWTGLKNTNSPALFQWSDGTEVTLTYWNENEPSVPFNKTPNCVSYLGKLGQWKVQSCEKKLRYVCKGGGSGGGSGGGS
B7: Ncan CRD-mouse IgG2a-Fc fusion protein (Fc fusion)
chain: not shown
B8: Klrb1c CRD-mouse IgG2a-Fc fusion protein (Fc fusion)
chain: HRDKCFHVSQVSNTWEEGQADCGRKGATLLLIQDQEELRFLLDSIKEKYNSFWIGLRFTLPDMNWKWINGTTFNSDVLKITGVTENGSCASILGDKVTPESCASDNRWICQGGGSGGGSGGGS
B9: Lgals9_2 CRD-mouse IgG2a-Fc fusion protein (Fc fusion)
chain: FYTPIPNGLYPSKSIMISGNVLPDATRFHINLRCGGDIAFHLNPRFNENAVVRNTQINNSWGQEERSLLGRMPFSRGQSFSVWIICEGHCFKVAVNGQHMCEYYHRLKNLQDINTLEVAGDIQLTHVQTGGGSGGGSGGGS
B10: Ly75_3 CRD-mouse IgG2a-Fc fusion protein (Fc fusion)
chain: KDAESDKLCPPDEGWKRHGETCYKIYEKEAPFGTNCNLTITSRFEQEFLNYMMKNYDKSLRKYFWTGLRDPDSRGEYSWAVAQGVKQAVTFSNWNFLEPASPGGCVAMSTGKTLGKWEVKNCRSFRALSICKKGGGSGGGSGGGS
B11: Lgals6_2 CRD-mouse IgG2a-Fc fusion protein (Fc fusion)
chain: YVGALQGGFTVRRTIIIKGYVLPTAKTFAINFRVGSSEDIALHINPRIGDCLVRNSYMNGSWGTEERMVAYNPFGPGQFFDLSIRCGMDRFKVFANGIHLFNFSHRFQALRKINTLEINGDLTLSYVHIGGGSGGGSGGGS
B12: Klri1 CRD-mouse IgG2a-Fc fusion protein (Fc fusion)
chain: FGNNFYCVFKENTKTWAESQSACEELNSHLVIIDSKAEVENLLLFEMDGWILHKMDGTNSSWLWRNDIKIQNTLTNDSEKKNHSCHYLRGNLFMPDECSAKKSYICEGGGSGGGSGGGS
B13: Ly75_4 CRD-mouse IgG2a-Fc fusion protein (Fc fusion)
chain: SSLSCYKVFHIERIVRKRNWEEAERFCQALGAHLPSFSRREEIKDFVHLLKDQFSGQRWLWIGLNKRSPDLQGSWQWSDRTPVSAVMMEPEFQQDFDIRDCAAIKVLDVPWRRVWHLYEDKDYAYWKPFACDAKLEWVCQGGGSGGGSGGGS
B14: Ly75_10 CRD-mouse IgG2a-Fc fusion protein (Fc fusion)
chain: YGGHCYASDQVLHSFSEAKQVCQELDHSATVVTIADENENKFVSRLMRENYNITMRVWLGLSQHSLDQSWSWLDGLDVTFVKWENKTKDGDGKCSILIASNETWRKVHCSRGYARAVCKIGGGSGGGSGGGS
B15: Clec2g CRD-mouse IgG2a-Fc fusion protein (Fc fusion)
chain: VGNKCFYFSEYTSNWTFAQTFCMAQEAQLARFDNEKELNFLMRYKANFDSWIGLHRESSEHPWKWTDNTEYNNMIPIQGVETCAYLSGNGISSSRHYIPRIWICSGGGSGGGSGGGS
B16: Clec2h CRD-mouse IgG2a-Fc fusion protein (Fc fusion)
chain: FGSKCFYFSEDMGNWTFSQSSCVASNSHLALFHSLEELNFLKRYKGTSDHWIGLHRASTQHPWIWTDNTEYSNLVLTRGGGECGFLSDNGISSGRSYTHRKWICSGGGSGGGSGGGS
B17: Vcan CRD-mouse IgG2a-Fc fusion protein (Fc fusion)
chain: not shown
B18: Clec5a CRD-mouse IgG2a-Fc fusion protein (Fc fusion)
chain: HQGKCFFFSFSESPWKDSMDYCATQGSTLAIVNTPEKLKYLQDIAGIENYFIGLVRQPGEKKWRWINNSVFNGNVTNQDQNFDCVTIGLTKTYDAASCEVSYRWICEGGGSGGGSGGGS
B19: Klrg2 CRD-mouse IgG2a-Fc fusion protein (Fc fusion)
chain: SQEQCYYLSEEAQDWEGSQAFCSAHHATLPLLSHTQDFLRKYRITKGSWVGARRGPEGWHWTDGVPLPYQLFPADSEDHPDFSCGGLEEGRLVALDCSSPRPWVCAGGGSGGGSGGGS
B20: Ly75_5 CRD-mouse IgG2a-Fc fusion protein (Fc fusion)
chain: IEGSEYWFVADPHLNYEEAVLYCASNHSFLATITSFTGLKAIKNKLANISGEEQKWWVKTSENPIDRYFLGSRRRLWHHFPMTFGDECLHMSAKTWLVDLSKRADCNAKLPFICEGGGSGGGSGGGS
B21: Clec6a CRD-mouse IgG2a-Fc fusion protein (Fc fusion)
chain: FGSSCYLISTKENFWSTSEQNCVQMGAHLVVINTEAEQNFITQQLNESLSYFLGLSDPQGNGKWQWIDDTPFSQNVRFWHPHEPNLPEERCVSIVYWNPSKWGWNDVFCDSKHNSICEGGGSGGGSGGGS
B22: Klrk1 CRD-mouse IgG2a-Fc fusion protein (Fc fusion)
chain: HRNNCYQFFNEEKTWNQSQASCLSQNSSLLKIYSKEEQDFLKLVKSYHWMGLVQIPANGSWQWEDGSSLSYNQLTLVEIPKGSCAVYGSSFKAYTEDCANLNTYICMGGGSGGGSGGGS
B23: Klre1 CRD-mouse IgG2a-Fc fusion protein (Fc fusion)
chain: FRCSCYFFSKEELIWRDSQRACLSLNSSLIRMNKEEMNFFSLKSFFWVGVYYNETRRQWLWEDHSVLPSGLFSKLEANMKNFCASYKSKEAYMEENCANKLTYICKGGGSGGGSGGGS
B24: Colec12 CRD-mouse IgG2a-Fc fusion protein (Fc fusion)
chain: FTDKCYYFSLEKEIFEDAKLFCEDKSSHLVFINSREEQQWIKKHTVGRESHWIGLTDSEQESEWKWLDGSPVDYKNWKAGQPDNWGSGHGPGEDCAGLIYAGQWNDFQCDEINNFICEGGGSGGGSGGGS
B25: Cd209b CRD-mouse IgG2a-Fc fusion protein (Fc fusion)
chain: FLLGNCYFFSKSQRNWNDAVTACKEVKAQLVIINSDEEQTFLQQTSKAKGPTWMGLSDLKKEATWLWVDGSTLSSRFQKYWNRGEPNNIGEEDCVEFAGDGWNDSKCELKKFWICKGGGSGGGSGGGS
B26: Lgalsl CRD-mouse IgG2a-Fc fusion protein (Fc fusion)
chain: PFCGHIKGGMRPGKKVLVMGIVDLNPESFAISLTCGDSEDPPADVAIELKAVFTDRQLLRNSCISGERGEEQSAIPYFPFIPDQPFRVEILCEHPRFRVFVDGHQLFDFYHRIQTLSAIDTIKINGDLQIGGGSGGGSGGGS
B27: Layn CRD-mouse IgG2a-Fc fusion protein (Fc fusion)
chain: TRRPCYKVIYFHDAFQRLNFEEAKETCMEDGGQLVSIETEDEQRLIEKFIENLLASDGDFWIGLKRLEEKQSNNTACQDLYAWTDGSTSQFRNWYVDEPSCGSEVCVVMYHQPSAPPGIGGSYMFQWNDDRCNMKNNFICKGGGSGGGSGGGS
B28: Clec7a CRD-mouse IgG2a-Fc fusion protein (Fc fusion)
chain: HGKSCYLFSFSGNSWYGSKRHCSQLGAHLLKIDNSKEFEFIESQTSSHRINAFWIGLSRNQSEGPWFWEDGSAFFPNSFQVRNTAPQESLLHNCVWIHGSEVYNQICNTSSYSICEGGGSGGGSGGGS
B29: Bcan CRD-mouse IgG2a-Fc fusion protein (Fc fusion)
chain: not shown

Experiments:
Assay in all cases: ELISA screen
[1] = target: T1, full-length trimeric SARS-CoV-2 Spike protein (Spike-H6) (SARS-CoV-2, N-glycosylated (22 N-glycosylation sites))
T1 construct: also called trimeric Spike; full-length Spike-H6

[2] = target: T2, human recombinant soluble ACE2 (human, UniProt Q9BYF1 18-740)
T2 construct: also called hrsACE2

[3] = target: T3, monomeric SARS-CoV-2 receptor binding domain (RBD-H6) (SARS-CoV-2, UniProt P0DTC2 319-541)
T3 construct: Made in HEK293-6E cells; also called RBD Spike; monomeric RBD

T2 sequence (Q9BYF1 18-740 limits assumed): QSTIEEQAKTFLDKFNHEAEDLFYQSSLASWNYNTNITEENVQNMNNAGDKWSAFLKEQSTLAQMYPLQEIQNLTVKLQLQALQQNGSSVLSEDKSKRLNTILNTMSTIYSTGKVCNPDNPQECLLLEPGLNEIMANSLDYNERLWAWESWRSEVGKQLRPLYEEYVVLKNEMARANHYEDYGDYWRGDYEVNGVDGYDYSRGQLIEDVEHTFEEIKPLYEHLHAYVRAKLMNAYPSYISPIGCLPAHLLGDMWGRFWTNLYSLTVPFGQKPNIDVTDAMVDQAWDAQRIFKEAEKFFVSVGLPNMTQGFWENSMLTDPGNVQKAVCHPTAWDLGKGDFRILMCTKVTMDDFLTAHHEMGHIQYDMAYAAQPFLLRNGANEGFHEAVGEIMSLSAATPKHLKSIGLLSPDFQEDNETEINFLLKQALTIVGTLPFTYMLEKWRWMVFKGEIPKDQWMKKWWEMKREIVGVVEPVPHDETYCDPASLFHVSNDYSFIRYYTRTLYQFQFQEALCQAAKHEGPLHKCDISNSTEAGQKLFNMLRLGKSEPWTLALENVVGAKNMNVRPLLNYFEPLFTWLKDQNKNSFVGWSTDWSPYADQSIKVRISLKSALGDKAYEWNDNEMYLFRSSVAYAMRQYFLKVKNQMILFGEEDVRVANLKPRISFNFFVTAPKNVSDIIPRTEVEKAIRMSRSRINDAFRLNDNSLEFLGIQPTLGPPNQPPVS

Row | Binder | Mean normalized OD [1] [OD] | Mean normalized OD [2] [OD] | Mean normalized OD [3] [OD]
1 | B1 | -0.434 | -0.571 | –
2 | B2 | 0.001 | -0.003 | 0.001
3 | B3 | 0.003 | -0.843 | 0.003
4 | B4 | 0.046 | – | 0.015
5 | B5 | -0.61 | -0.249 | –
6 | B6 | -0.319 | -0.135 | –
7 | B7 | -0.09 | -0.589 | –
8 | B8 | 0.001 | -0.004 | 0.004
9 | B9 | 0.056 | – | 0.033
10 | B10 | 0.002 | -0.003 | 0.001
11 | B11 | 0.135 | – | –
12 | B12 | 0.002 | -0.003 | 0.001
13 | B13 | -0.014 | -0.004 | 0.007
14 | B14 | -0.002 | -0.02 | 0.014
15 | B15 | -0.241 | -0.722 | –
16 | B16 | -0.387 | -0.707 | –
17 | B17 | 0.064 | – | 0.052
18 | B18 | 0 | -0.005 | -0.001
19 | B19 | -0.044 | -0.013 | 0.043
20 | B20 | -0.17 | -0.106 | –
21 | B21 | 0.003 | -0.032 | 0.029
22 | B22 | 0 | -0.003 | 0
23 | B23 | -0.002 | -0.006 | 0.045
24 | B24 | 0.04 | – | 0.027
25 | B25 | -0.032 | -0.094 | 0.113
26 | B26 | 0.006 | -0.004 | 0.001
27 | B27 | 0.002 | -0.005 | 0
28 | B28 | 0 | -0.001 | 0.004
29 | B29 | -0.111 | -0.538 | –
